Experimental data reported in paper PMC11187563, “The importance of tyrosines in multimers of cyclic RGD nonapeptides: towards αvβ6-integrin targeted radiotherapeutics” (RSC Medicinal Chemistry, 2024).
Like-named read-outs stand apart in the source and are kept apart here.

Columns and labels:
[1] = Ex vivo biodistribution of 177Lu-labeled peptide tetramers in H2009 xenografted SCID mice; details: CB17 SCID, mouse, iv, total radioactivity, H2009 bearing SCID mice; for tissue uptake at 72 h / tissue to tissue ratio at 72 h: 70 pmol, 3 d p.i.; for tissue uptake at 1.5 h / tissue to tissue ratio at 1.5 h: 118 pmol, 90 min p.i.
Description: (§1) The biodistribution of the ^177Lu-labeled peptide conjugates was investigated in severe combined immunodeficiency (SCID) mice bearing subcutaneous xenografts of the αvβ6-integrin expressing human lung adenocarcinoma cell line H2009 on their right shoulders. Two representative time points after i.v. administration (p.i.) were evaluated.
(§2) Analytical HPLC was performed on a Shimadzu (Kyoto, Japan) Prominence HPLC system equipped with either a Dr. Maisch ReproSil Pur C18 AQ 150 × 4.6 mm, 5 μm, 120 Å (AC1) or a Phenomenex Kinetex C18 150 × 4.6 mm 5 μm column (AC2). Semipreparative HPLC was performed on a Shimadzu HPLC system equipped with either a Dr. Maisch ReproSil Pur C18 AQ 250 × 10 mm, 5 μm, 120 Å column with 5 mL min^−1 flow (PC1) or a Dr. Maisch ReproSil Pur C18 150 × 30 mm, 5 μm, 120 Å column with 20 mL min^−1 flow (PC2). Solvents for both systems were water (A) and acetonitrile (B) each supplemented with 0.1% (vol) trifluoroacetic acid (TFA). ESI-MS spectra (positive mode) were recorded on a Shimadzu LC-MS 2020 single quadrupol mass spectrometer. Solvents for MS applications were water (A) and acetonitrile (B) each supplemented with 0.1% (vol) formic acid. The other experimental procedures (determination of log D7.4, cultivation of H2009 human lung adenocarcinoma cells, generation of tumor xenografts in CB17 SCID mice, and biodistribution) were performed as described before.[28] All animal experiments have been carried out according to applicable law and institutional guidelines of Technical University of Munich, and were approved by the responsible local authority (Regierung von Oberbayern). The H2009 cells were regularly authenticated and tested for mycoplasma contamination. DOTPI-tetraazide,[43]FF (previously termed AvB6),[29]FY,[34] and YY (also referred to as Tyr2-alkyne)[36] were synthesized as described previously.

[2] = system: αvβ6-integrin expressing human lung adenocarcinoma cell line H2009 xenografts; test: as above; details: H2009 bearing SCID mice
Description: as §1, §2

[3] = H2009 tumor, read-out: Tumor H2009 %IA/g
[4] = adrenals, read-out: Adrenals %IA/g
[5] = heart (myocard), read-out: Heart (myocard) %IA/g
[6] = kidneys, read-out: Kidneys %IA/g
[7] = large intestine (empty), read-out: Large intestine (empty) %IA/g
[8] = pancreas, read-out: Pancreas %IA/g
[9] = small intestine (empty), read-out: Small intestine (empty) %IA/g
[10] = stomach (empty), read-out: Stomach (empty) %IA/g
[11] = tumor/blood, read-out: tumor/organ ratio, Blood
[12] = tumor/heart (myocard), read-out: tumor/organ ratio, Heart (myocard)
[13] = tumor/liver, read-out: tumor/organ ratio, Liver
[14] = tumor/lung, read-out: tumor/organ ratio, Lung
[15] = tumor/pancreas, read-out: tumor/organ ratio, Pancreas
[16] = tumor/spleen, read-out: tumor/organ ratio, Spleen

CC(C)C[C@@H]1NC(=O)[C@H](CC(=O)O)NC(=O)CNC(=O)[C@H](CCCNC(=N)N)NC(=O)[C@H](Cc2ccccc2)NC(=O)[C@H](CCCCNC(=O)CCC(=O)NCCCC[C@H](NC(=O)[C@H](Cc2ccccc2)NC(=O)CNC(=O)CCc2cn(CCCNC(=O)CCP(=O)(O)CN3CCN(CP(=O)(O)CCC(=O)NCCCn4cc(CCC(=O)NCC(=O)N[C@@H](Cc5ccccc5)C(=O)N[C@@H](CCCCNC(=O)CCC(=O)NCCCC[C@H]5C(=O)N[C@@H](Cc6ccccc6)C(=O)N[C@@H](CCCNC(=N)N)C(=O)NCC(=O)N[C@@H](CC(=O)O)C(=O)N[C@@H](CC(C)C)C(=O)N[C@@H](C)C(=O)N[C@@H](Cc6ccc(O)cc6)C(=O)N6CCC[C@@H]6C(=O)N5C)C(=O)O)nn4)CCN(CP(=O)(O)CCC(=O)NCCCn4cc(CCC(=O)NCC(=O)N[C@@H](Cc5ccccc5)C(=O)N[C@@H](CCCCNC(=O)CCC(=O)NCCCC[C@H]5C(=O)N[C@@H](Cc6ccccc6)C(=O)N[C@@H](CCCNC(=N)N)C(=O)NCC(=O)N[C@@H](CC(=O)O)C(=O)N[C@@H](CC(C)C)C(=O)N[C@@H](C)C(=O)N[C@@H](Cc6ccc(O)cc6)C(=O)N6CCC[C@@H]6C(=O)N5C)C(=O)O)nn4)CCN(CP(=O)(O)CCC(=O)NCCCn4cc(CCC(=O)NCC(=O)N[C@@H](Cc5ccccc5)C(=O)N[C@@H](CCCCNC(=O)CCC(=O)NCCCC[C@H]5C(=O)N[C@@H](Cc6ccccc6)C(=O)N[C@@H](CCCNC(=N)N)C(=O)NCC(=O)N[C@@H](CC(=O)O)C(=O)N[C@@H](CC(C)C)C(=O)N[C@@H](C)C(=O)N[C@@H](Cc6ccc(O)cc6)C(=O)N6CCC[C@@H]6C(=O)N5C)C(=O)O)nn4)CC3)nn2)C(=O)O)N(C)C(=O)[C@H]2CCCN2C(=O)[C@H](Cc2ccc(O)cc2)NC(=O)[C@H](C)NC1=O [Compound 177Lu-GFK-Y4, metal not drawn]
tissue uptake at 72 h [1, 3]: 0.77 %ID/g | tissue uptake at 1.5 h [1, 3]: 1.74 %ID/g | tissue uptake at 72 h [1, 4]: 0.25 %ID/g | tissue uptake at 1.5 h [1, 4]: 0.95 %ID/g | tissue uptake at 72 h ([1]; blood, read-out: Blood %IA/g): 0.02 %ID/g | tissue uptake at 1.5 h ([1]; blood, read-out: Blood %IA/g): 0.44 %ID/g | tissue uptake at 72 h ([1]; bone, read-out: Bone %IA/g): 0.25 %ID/g | tissue uptake at 1.5 h ([1]; bone, read-out: Bone %IA/g): 0.49 %ID/g | tissue uptake at 72 h [1, 5]: 0.12 %ID/g | tissue uptake at 1.5 h [1, 5]: 0.32 %ID/g | tissue uptake at 72 h [1, 6]: 169 %ID/g | tissue uptake at 1.5 h [1, 6]: 274 %ID/g | tissue uptake at 72 h [1, 7]: 0.78 %ID/g | tissue uptake at 1.5 h [1, 7]: 1.76 %ID/g | tissue uptake at 72 h ([1]; liver, read-out: Liver %IA/g): 0.48 %ID/g | tissue uptake at 1.5 h ([1]; liver, read-out: Liver %IA/g): 1.16 %ID/g | tissue uptake at 72 h ([1]; lung, read-out: Lung %IA/g): 0.5 %ID/g | tissue uptake at 1.5 h ([1]; lung, read-out: Lung %IA/g): 2.88 %ID/g | tissue uptake at 72 h ([1]; muscle, read-out: Muscle %IA/g): 0.13 %ID/g | tissue uptake at 1.5 h ([1]; muscle, read-out: Muscle %IA/g): 0.26 %ID/g | tissue uptake at 72 h [1, 8]: 0.08 %ID/g | tissue uptake at 1.5 h [1, 8]: 0.14 %ID/g | tissue uptake at 72 h [1, 9]: 0.15 %ID/g | tissue uptake at 1.5 h [1, 9]: 0.73 %ID/g | tissue uptake at 72 h ([1]; spleen, read-out: Spleen %IA/g): 0.86 %ID/g | tissue uptake at 1.5 h ([1]; spleen, read-out: Spleen %IA/g): 0.89 %ID/g | tissue uptake at 72 h [1, 10]: 2.42 %ID/g | tissue uptake at 1.5 h [1, 10]: 3.29 %ID/g | tissue to tissue ratio at 72 h ([1]; tumor / adrenals, read-out: tumor/organ ratio, Adrenals): 3.7 | tissue to tissue ratio at 72 h ([1]; tumor / bone, read-out: tumor/organ ratio, Bone): 3.2 | tissue to tissue ratio at 72 h ([1]; tumor / large intestine (empty), read-out: tumor/organ ratio, Large intestine (empty)): 1.4 | tissue to tissue ratio at 72 h ([1]; tumor / muscle, read-out: tumor/organ ratio, Muscle): 6.9 | tissue to tissue ratio at 72 h ([1]; tumor / small intestine (empty), read-out: tumor/organ ratio, Small intestine (empty)): 5.6 | tissue to tissue ratio at 72 h ([1]; tumor / stomach (empty), read-out: tumor/organ ratio, Stomach (empty)): 0.4 | tissue to tissue ratio at 1.5 h ([1]; tumor/adrenals, read-out: tumor/organ ratio, Adrenals): 2.2 | tissue to tissue ratio at 72 h [1, 11]: 56.1 | tissue to tissue ratio at 1.5 h [1, 11]: 4.3 | tissue to tissue ratio at 1.5 h ([1]; tumor/bone, read-out: tumor/organ ratio, Bone): 3.6 | tissue to tissue ratio at 72 h [1, 12]: 6.9 | tissue to tissue ratio at 1.5 h [1, 12]: 5.5 | tissue to tissue ratio at 1.5 h ([1]; tumor/large intestine (empty), read-out: tumor/organ ratio, Large intestine (empty)): 1.1 | tissue to tissue ratio at 72 h [1, 13]: 2 | tissue to tissue ratio at 1.5 h [1, 13]: 1.7 | tissue to tissue ratio at 72 h [1, 14]: 1.8 | tissue to tissue ratio at 1.5 h [1, 14]: 0.6 | tissue to tissue ratio at 1.5 h ([1]; tumor/muscle, read-out: tumor/organ ratio, Muscle): 7.2 | tissue to tissue ratio at 72 h [1, 15]: 9.9 | tissue to tissue ratio at 1.5 h [1, 15]: 12.2 | tissue to tissue ratio at 1.5 h ([1]; tumor/small intestine (empty), read-out: tumor/organ ratio, Small intestine (empty)): 2.5 | tissue to tissue ratio at 72 h [1, 16]: 1 | tissue to tissue ratio at 1.5 h [1, 16]: 2.1 | tissue to tissue ratio at 1.5 h ([1]; tumor/stomach (empty), read-out: tumor/organ ratio, Stomach (empty)): 0.6 | tumor/organ ratio, Kidneys ([2]; 90 min p.i.): 0.0 | tumor/organ ratio, Kidneys ([2]; 3 d p.i.): 0.0
